Reference: the supplement of paper PMC10567573

B1: TSPAN10 (parent)
chain: EGCGPPLRRWLRANLAASGGYAIA

Variants of: B1
Assay: protein stability index of a GFP-peptide fusion (GPS, HEK-293T) (PSI 1-6); higher = more stable
Settings: c terminus: a fixed tail appended
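Also: lentivirally expressed fusions sorted by FACS into six bins by GFP to DsRed ratio, PSI derived from sequencing read proportions per bin multiplied by bin number.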

Protein stability index of substitutions, site by site:
G20: Y 1.66 | F 1.96 | S 2.17 | H 2.03 | N 3.44 | D 2.25 | M 1.84 | R 1.48 | A 1.94 | L 1.96
R12: S 2.58 | M 1.9 | T 1.82 | K 2.92 | D 1.8 | C 2.17 | G 1.82 | Q 2.17 | L 3.2 | H 2.47
A17: E 2.63 | Q 2.79 | K 1.7 | C 1.39 | L 1.63 | N 2.96 | G 1.59 | F 1.35 | M 2.2 | D 2.71 | T 1.4 | W 2.03 | H 2 | P 1.81 | I 2.67
W10: A 3.63 | K 2.09 | P 3.39 | I 2.94 | D 3.25 | V 1.89 | E 3.4 | C 2.03 | Y 2.44 | H 2.53 | S 2.81 | R 3.5 | M 2.62 | F 1.61 | N 2.55
A22: V 2.8 | C 1.38 | K 1.75 | S 1.93 | H 2.23 | P 1.93 | Y 2.04 | T 1.7 | R 1.68 | N 2.43 | I 1.03 | Q 1.63 | G 1.96 | W 2.18
A24: F 1.48 | W 2.25 | N 2.27 | D 2.42 | I 2.22 | Q 2.6 | C 2.02 | L 2.81 | S 1.98 | T 2 | M 1.93 | H 1.68
G19: D 2.11 | T 1.74 | R 2.33 | Y 1.93 | E 1.84 | F 1.79 | V 1.67 | K 1.89 | L 2.17 | S 2.58 | M 1.24 | A 1.11
P5: V 2.15 | D 2.38 | C 3.5 | R 2.48 | N 2.02 | T 2.05 | K 2.03 | F 2.73 | A 2.08 | G 2.08 | M 1.65 | Y 1.6 | E 3.75
Y21: T 2.53 | I 1.81 | A 2.65 | L 2.11 | P 2.07 | Q 2.75 | R 2.3 | H 2.39 | S 2.7 | F 1.85 | D 2.61 | C 2.36 | M 2.17 | K 3.04 | W 1.47 | E 2.4 | G 2.11
L15: P 2.14 | F 1.58 | N 2.28 | G 2.59 | R 3.06 | Y 1.92 | E 2.96 | K 2.53 | D 2.81 | Q 3.2 | C 1.49 | M 2.16 | H 2.62 | I 1.93
A16: L 1.53 | G 1.71 | Q 1.57 | K 2.31 | W 1.45 | T 1.63 | R 1.68 | V 1.65 | N 2.5 | H 2.13 | I 1.96 | E 2.58 | M 2.98 | C 1.78 | Y 1.48 | D 2.12 | P 1.78
G2: H 2.07 | L 1.57 | N 1 | D 1.91 | I 2.15 | V 1.53 | R 2.04 | T 1.83 | F 2.24 | C 1.68 | E 1.97 | W 2 | A 2 | K 2.32 | S 1.6 | Y 1.69
E1: W 2.07 | R 2.57 | P 1.71 | Q 1.38 | K 1.42 | D 2.06 | V 1 | M 2.45 | C 3.75 | N 1.96 | L 1.81 | Y 1.97
R8: I 2.1 | L 1.37 | T 1.71 | G 1.71 | F 1.3 | N 1.83 | C 1.53 | P 1.46 | D 1.47 | M 2.16 | K 1.85 | V 2.7 | H 1.58 | A 1.04 | E 1.26 | W 1.31
S18: R 1.8 | A 1.97 | C 2.15 | V 2.16 | W 2.06 | Q 2.04 | F 2.57 | I 1.44 | L 2.19 | D 2.71 | T 2.34 | E 1.75 | G 1.98 | H 1.87
I23: S 2.63 | V 2.11 | P 2.45 | W 1.59 | N 2.92 | T 2.53 | G 2.3 | M 1.21 | K 2.96 | Q 2.48 | R 2.6 | H 1.96 | D 2.35 | F 2.17 | Y 1.73
G4: I 2.28 | H 2.58 | L 1.58 | M 1.83 | F 1.27 | E 1.98 | K 2.31 | V 2.25 | D 2.1 | C 1.32 | P 2.04 | R 2.44 | Q 2 | W 2.15
P6: V 1.89 | L 1.03 | A 2.2 | R 1.95 | G 1.86 | H 1.62 | T 2.46 | K 1.97 | Q 1.89 | M 1.84 | N 2.29 | W 1.5
C3: Q 3.09 | P 2.25 | K 1.93 | S 2.45 | D 2.37 | F 1.61 | R 1.4 | T 1.7 | V 1.76 | H 2.62 | G 2.11 | W 1.72 | M 1.78 | E 2.82
L11: M 2.51 | Y 1.9 | T 2.89 | W 1.5 | I 1.91 | R 2.56 | G 1.74 | F 1.03 | C 1.68 | S 2.61 | V 1.82 | K 2.43 | P 2.65 | D 2.12
A13: R 1.62 | D 1.83 | K 2.95 | H 2.26 | N 2.19 | S 2.58 | G 3.35 | E 3.18 | F 2.46 | M 1.4 | P 2.87 | T 2.25 | C 2.93 | V 1.75 | Y 1.66 | L 2.21
R9: E 2.28 | Q 1.81 | D 1.9 | L 1.05 | V 1.65 | P 2.54 | G 1.25 | S 2.33 | M 1.65 | Y 2.29 | K 1.79 | A 1.55 | C 1.29 | I 2.9
N14: L 1.02 | A 2.3 | R 1.74 | P 2.06 | K 2.81 | S 1.93 | D 1.86 | F 1.92 | I 1.05 | W 1.83 | T 1.86
L7: K 1.97 | T 2.97 | D 2.33 | Y 2 | A 1.91 | P 2.27 | S 2.29 | Q 1.36 | N 2.67 | I 1.39 | W 2.05 | M 2.39 | C 1.87 | F 1.4 | H 2.39 | V 2.3 | G 1.82
